Data: US20090291890A1 (published 2009)
Changes are numbered by the printed parent chain. Names may count otherwise. “And” between values parts separate entries of the source, which are not always exact repeats. Identical values can stand only once.

T1: Mesyl-dFPR-ACC
T1 sequence (peptide, N-terminal mesyl; D-Phe at position 1 (dF); C-terminal ACC fluorophore): FPR

B1: A122N/G124S-FVIIa (enzyme)
chain: ANAFLEELRPGSLERECKEEQCSFEEAREIFKDAERTKLFWISYSDGDQCASSPCQNGGSCKDQLQSYICFCLPAFEGRNCETHKDDQLICVNENGGCEQYCSDHTGTKRSCRCHEGYSLLNDSVSCTPTVEYPCGKIPILEKRNASKPQGRIVGGKVCPKGECPWQVLLLVNGAQLCGGTLINTIWVVSAAHCFDKIKNWRNLIAVLGEHDLSEHDGDEQSRRVAQVIIPSTYVPGTTNHDIALLRLHQPVVLTDHVVPLCLPERTFSERTLAFVRFSLVSGWGQLLDRGATALELMVLNVPRLMTQDCLQQSRKVGDSPNITEYMFCAGYSDGSKDSCKGDSGGPHATHYRGTWYLTGIVSWGQGCATVGHFGVYTRVSQYIEWLQKLMRSEPRPGVLLRAPFP
B2: S222A/T239I/H257A/Q286R/M298Q-FVIIa (enzyme)
chain: B1 chain with N122A, S124G, S222A, T239I, H257A, Q286R, M298Q
B3: H257S/Q286R/Q366V-FVIIa (enzyme)
chain: B1 chain with N122A, S124G, H257S, Q286R, Q366V
B4: Q286R/M298Q/Q366N-FVIIa (enzyme)
chain: B1 chain with N122A, S124G, Q286R, M298Q, Q366N
B5: S222A/T239V-FVIIa (enzyme)
chain: B1 chain with N122A, S124G, S222A, T239V
B6: T239V/Q286R/M298Q/H373F-FVIIa (enzyme)
chain: B1 chain with N122A, S124G, T239V, Q286R, M298Q, H373F
B7: Q286R/H257A-FVIIa (enzyme)
chain: B1 chain with N122A, S124G, H257A, Q286R
B8: H257S-FVIIa (enzyme)
chain: B1 chain with N122A, S124G, H257S
B9: M298Q/H373F-FVIIa (enzyme)
chain: B1 chain with N122A, S124G, M298Q, H373F
B10: S222A/T239I-FVIIa (enzyme)
chain: B1 chain with N122A, S124G, S222A, T239I
B11: T239V/Q286R/H373F-FVIIa (enzyme)
chain: B1 chain with N122A, S124G, T239V, Q286R, H373F
B12: T239I/Q286R-FVIIa (enzyme)
chain: B1 chain with N122A, S124G, T239I, Q286R
B13: T239I/Q286R/M298Q-FVIIa (enzyme)
chain: B1 chain with N122A, S124G, T239I, Q286R, M298Q
B14: Q286R/H373F-FVIIa (enzyme)
chain: B1 chain with N122A, S124G, Q286R, H373F
B15: H373F-FVIIa (enzyme)
chain: B1 chain with N122A, S124G, H373F
B16: Q286R/M298Q/H373F-FVIIa (enzyme)
chain: B1 chain with N122A, S124G, Q286R, M298Q, H373F
B17: V158D/T239I/E296V/M298Q-FVIIa (enzyme)
chain: B1 chain with N122A, S124G, V158D, T239I, E296V, M298Q
B18: S52A/S60A/Q286R/H373F-FVIIa (enzyme)
chain: B1 chain with S52A, S60A, N122A, S124G, Q286R, H373F
B19: T239I/Q286R/M298Q/H373F-FVIIa (enzyme)
chain: B1 chain with N122A, S124G, T239I, Q286R, M298Q, H373F
B20: T239I/Q286R/H373F-FVIIa (enzyme)
chain: B1 chain with N122A, S124G, T239I, Q286R, H373F
B21: S222A/H257A/Q286R/Q366V-FVIIa (enzyme)
chain: B1 chain with N122A, S124G, S222A, H257A, Q286R, Q366V
B22: Q366V-FVIIa (enzyme)
chain: B1 chain with N122A, S124G, Q366V

Experiments:
[1] = target: Factor X (Homo sapiens (Human)) (UniProt P00742)
[2] = target: T1, Mesyl-dFPR-ACC

Molecule	kcat/KM (M^-1s^-1), TF-dependent assay [1]	kcat/KM, TF-independent assay [1]	Activity (µmol/sec/µmol), specific activity for mesyl-dFPR-ACC (µmol/sec/µmol) [2]	kcat/KM, TF-dependent assay [1] [M⁻¹ s⁻¹]
A122N/G124S/A175S/Q366V-FVIIa (enzyme)	3.02e+07 M⁻¹ s⁻¹	3 M⁻¹ s⁻¹	2.34	
A122N/G124S/A175S/Q286R-FVIIa (enzyme)	4.11e+07 M⁻¹ s⁻¹	3 M⁻¹ s⁻¹	2.16	
S52A/S60A/Q286R/M298Q/H373F-FVIIa (enzyme)	1.77e+08 M⁻¹ s⁻¹	63.3 M⁻¹ s⁻¹	5.02	
{Gla swap FIX/Q44S}/Q286R/M298Q-FVIIa (enzyme)	1.98e+08 M⁻¹ s⁻¹	729 M⁻¹ s⁻¹	1.11	
S52A/S60A/Q286R/M298Q-FVIIa (enzyme)	1.25e+08 M⁻¹ s⁻¹	217 M⁻¹ s⁻¹	1.08	
S52A/S60A-FVIIa (enzyme)	3.56e+07 M⁻¹ s⁻¹	3.8 M⁻¹ s⁻¹	1.95	
T128N/P129A/S222A-FVIIa (enzyme)	6.25e+07 M⁻¹ s⁻¹	4.8 M⁻¹ s⁻¹	2.7	
Gla swap FIX/Q286R/M298Q-FVIIa (enzyme)	2.55e+08 M⁻¹ s⁻¹ and 2.3e+08 M⁻¹ s⁻¹	673 M⁻¹ s⁻¹ and 678 M⁻¹ s⁻¹	1.53	
T128N/P129A/A175S/S222A-FVIIa (enzyme)	1.72e+07 M⁻¹ s⁻¹	1.9 M⁻¹ s⁻¹	3.19	
T128N/P129A/Q286R/H373F-FVIIa (enzyme)	6.91e+07 M⁻¹ s⁻¹	6.6 M⁻¹ s⁻¹	2.31	
T128N/P129A/Q286R/M298Q-FVIIa (enzyme)	1.86e+08 M⁻¹ s⁻¹ and 1.5e+08 M⁻¹ s⁻¹	81.6 M⁻¹ s⁻¹ and 212 M⁻¹ s⁻¹	1.8	
A122N/G124S/A175S/Q286R/M298Q-FVIIa (enzyme)			3.03	7.43e+07
Gla swap FIX/S222A/T239V/Q286R-FVIIa (enzyme)	2.03e+08 M⁻¹ s⁻¹ and 9.94e+07 M⁻¹ s⁻¹		0.66	
T128N/P129A/A175S/Q286R/M298Q-FVIIa (enzyme)			2.02	7.21e+07
T128N/P129A/A175S/S222A/H257A/Q286R/M298Q-FVIIa (enzyme)			21.8	6.89e+07
A122N/G124S/A175S/S222A/H257A/Q286R/M298Q-FVIIa (enzyme)			1.99	8.4e+07
T128N/P129A/Q286R/M298Q/H373F-FVIIa (enzyme)	1.33e+08 M⁻¹ s⁻¹	30.7 M⁻¹ s⁻¹	2.83	
Gla swap FIX/T239I/Q286R/M298Q-FVIIa (enzyme)	1.25e+08 M⁻¹ s⁻¹	244 M⁻¹ s⁻¹	0.67	
Gla swap FIX/A122N/G124S/A175S/S222A/Q286R-FVIIa (enzyme)			0.89	4.13e+07
A122N/G124S/A175S/S222A-FVIIa (enzyme)	2.08e+07 M⁻¹ s⁻¹		2.68	
S52A/S60A/V158D/E296V/M298Q-FVIIa (enzyme)	2e+08 M⁻¹ s⁻¹	1760 M⁻¹ s⁻¹	2.56	
Gla swap FIX/T239V/Q286R/M298Q-FVIIa (enzyme)	2.53e+08 M⁻¹ s⁻¹ and 1.79e+08 M⁻¹ s⁻¹		1.13	

Molecule	kcat/KM (M^-1s^-1), TF-dependent assay [1]	kcat/KM, TF-independent assay [1]	Activity (µmol/sec/µmol), specific activity for mesyl-dFPR-ACC (µmol/sec/µmol) [2]	kcat/KM, TF-dependent assay [1] [M⁻¹ s⁻¹]
B1	3.87e+07 M⁻¹ s⁻¹	3.4 M⁻¹ s⁻¹	2.24	
B2	1.14e+08 M⁻¹ s⁻¹	51.6 M⁻¹ s⁻¹	1.41	
B3	7.1e+07 M⁻¹ s⁻¹	7.7 M⁻¹ s⁻¹	2	
B4	1.17e+08 M⁻¹ s⁻¹	65.9 M⁻¹ s⁻¹	2.35	
B5	7.49e+07 M⁻¹ s⁻¹	3 M⁻¹ s⁻¹	1.91	
B6	1.7e+08 M⁻¹ s⁻¹	40.7 M⁻¹ s⁻¹	3.07	
B7		4.3 M⁻¹ s⁻¹ and 2.5 M⁻¹ s⁻¹	1.96	
B8	1.18e+08 M⁻¹ s⁻¹	3.1 M⁻¹ s⁻¹	2.64	
B9	7.21e+07 M⁻¹ s⁻¹	96.4 M⁻¹ s⁻¹	4	
B10	3.05e+07 M⁻¹ s⁻¹	1.7 M⁻¹ s⁻¹	1.36	
B11	1.06e+08 M⁻¹ s⁻¹	12.2 M⁻¹ s⁻¹	1.53	
B12	5.79e+07 M⁻¹ s⁻¹	4.6 M⁻¹ s⁻¹	0.88	
B13	1.13e+08 M⁻¹ s⁻¹	11.3 M⁻¹ s⁻¹	1.37	
B14	9.01e+07 M⁻¹ s⁻¹	81.6 M⁻¹ s⁻¹	0.78	
B15	5.58e+07 M⁻¹ s⁻¹		1.17	
B16	1.36e+08 M⁻¹ s⁻¹	115 M⁻¹ s⁻¹	4.59	
B17	1.45e+08 M⁻¹ s⁻¹	216 M⁻¹ s⁻¹	2.24	
B18	9.44e+07 M⁻¹ s⁻¹	30.1 M⁻¹ s⁻¹	3.14	
B19	1.08e+08 M⁻¹ s⁻¹	13.1 M⁻¹ s⁻¹	1.59	
B20	6.18e+07 M⁻¹ s⁻¹		1.24	
B21	1e+08 M⁻¹ s⁻¹	12.5 M⁻¹ s⁻¹	2.43	
B22	5.48e+07 M⁻¹ s⁻¹	4.3 M⁻¹ s⁻¹	9.29	
